These results are taken from publication PMC7617670.

Some results are limits rather than exact numbers.

For this experiment, the target named is PabA variant aY127A (Escherichia coli) (UniProt P00903). Put plainly: ITC; 250 μM PabB titrated into 25 μM PabA in the cell; 25 °C; 50 mM Tris/HCl pH 7.5, 50 mM KCl, 5 mM MgCl2; without Cho and Gln; one set of sites. Background: ITC needs no label: the signal is the heat of the interaction.

One may read the Kd as the concentration at which binding is half-saturated.

The substance “PabB, synthase subunit of aminodeoxychorismate synthase (ADCS) from Escherichia coli, wild type (from UniProt P05041 1-453) (enzyme)” returned a Kd of over 8 µM.
